Test results taken from the supplement of paper PMC10567573.

B1: LOC100129726 (parent)
chain: AKAADSPTRNDLESGLGHFSLRVH

Variants of: B1
Test: protein stability index of a GFP-peptide fusion (GPS, HEK-293T) (PSI 1-6); higher = more stable
Details: c terminus: a fixed tail appended
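Note: lentivirally expressed fusions sorted by FACS into six bins by GFP to DsRed ratio, PSI derived from sequencing read proportions per bin multiplied by bin number.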

**Q.** Which protein stability index does the source give for AKAADSPTRNDLESGFGHFSLRVH here?
**A.** The protein stability index was 2.57.

**Q.** With AKAADSPTRNDLESGVGHFSLRVH as the variant, how does the protein stability index read?
**A.** The protein stability index was 2.38.

**Q.** Which protein stability index does the source give for AKAADSPTRNDLESGMGHFSLRVH here?
**A.** The protein stability index was 3.26.

**Q.** With AKAADSPTRNDLESGTGHFSLRVH as the variant, how does the protein stability index read?
**A.** The protein stability index was 3.8.

**Q.** With AKAADSPTRNDLESGIGHFSLRVH as the variant, how does the protein stability index read?
**A.** The protein stability index was 3.71.

**Q.** Which protein stability index does the source give for AKAADSPTRNDLESGEGHFSLRVH here?
**A.** Its protein stability index is 4.23.

**Q.** For AKAADSPTRNDLESGRGHFSLRVH, which protein stability index is on record?
**A.** Its protein stability index is 3.78.

**Q.** Which protein stability index does the source give for AKAADSPTRNDLESGPGHFSLRVH here?
**A.** The protein stability index was 3.12.

**Q.** With AKAADSPTRNDLESGHGHFSLRVH as the variant, how does the protein stability index read?
**A.** The protein stability index was 3.44.

**Q.** With AKAADSPTRNDLESGQGHFSLRVH as the variant, how does the protein stability index read?
**A.** The protein stability index was 3.28.

**Q.** Which protein stability index does the source give for AKAADSPTRNDLESGKGHFSLRVH here?
**A.** The protein stability index was 3.89.

**Q.** For AKAADSPTRNDLESGGGHFSLRVH, which protein stability index is on record?
**A.** Its protein stability index is 3.58.

**Q.** With AKAADSPTRNDLESGYGHFSLRVH as the variant, how does the protein stability index read?
**A.** Its protein stability index is 2.84.

**Q.** For AKAADSPTRNDLESGDGHFSLRVH, which protein stability index is on record?
**A.** The protein stability index was 3.82.

**Q.** Which protein stability index does the source give for AKAADSPTRNDLESGSGHFSLRVH here?
**A.** Its protein stability index is 3.77.

**Q.** Which protein stability index does the source give for AKAADSPTRNDLESGWGHFSLRVH here?
**A.** Its protein stability index is 2.74.

**Q.** For AKAADSPTRNDLESGNGHFSLRVH, which protein stability index is on record?
**A.** Its protein stability index is 3.67.

**Q.** With AKAADSPTRNDLESGLCHFSLRVH as the variant, how does the protein stability index read?
**A.** The protein stability index was 2.85.

**Q.** With AKAADSPTRNDLESGLAHFSLRVH as the variant, how does the protein stability index read?
**A.** Its protein stability index is 2.84.

**Q.** For AKAADSPTLNDLESGLGHFSLRVH, which protein stability index is on record?
**A.** Its protein stability index is 2.73.

**Q.** With AKAADSPTFNDLESGLGHFSLRVH as the variant, how does the protein stability index read?
**A.** Its protein stability index is 2.4.

**Q.** For AKAADSPTNNDLESGLGHFSLRVH, which protein stability index is on record?
**A.** The protein stability index was 3.51.

**Q.** For AKAADSPTDNDLESGLGHFSLRVH, which protein stability index is on record?
**A.** Its protein stability index is 3.64.

**Q.** Which protein stability index does the source give for AKAADSPTGNDLESGLGHFSLRVH here?
**A.** The protein stability index was 3.84.

**Q.** With AKAADSPTCNDLESGLGHFSLRVH as the variant, how does the protein stability index read?
**A.** Its protein stability index is 3.04.

**Q.** Which protein stability index does the source give for AKAADSPTVNDLESGLGHFSLRVH here?
**A.** Its protein stability index is 2.71.

**Q.** With AKAADSPTTNDLESGLGHFSLRVH as the variant, how does the protein stability index read?
**A.** The protein stability index was 3.09.

**Q.** For AKAADSPTMNDLESGLGHFSLRVH, which protein stability index is on record?
**A.** The protein stability index was 3.46.

**Q.** For AKAADSPTYNDLESGLGHFSLRVH, which protein stability index is on record?
**A.** Its protein stability index is 2.7.

**Q.** Which protein stability index does the source give for AKAADSPTSNDLESGLGHFSLRVH here?
**A.** The protein stability index was 3.25.

**Q.** For AKAADSPTANDLESGLGHFSLRVH, which protein stability index is on record?
**A.** The protein stability index was 3.47.

**Q.** Which protein stability index does the source give for AKAADSPTKNDLESGLGHFSLRVH here?
**A.** The protein stability index was 4.17.

**Q.** With AKAADSPTINDLESGLGHFSLRVH as the variant, how does the protein stability index read?
**A.** The protein stability index was 2.37.

**Q.** For AKAADSPTWNDLESGLGHFSLRVH, which protein stability index is on record?
**A.** The protein stability index was 1.86.

**Q.** For AKAADSPTPNDLESGLGHFSLRVH, which protein stability index is on record?
**A.** Its protein stability index is 3.07.

**Q.** For AKAADSPTHNDLESGLGHFSLRVH, which protein stability index is on record?
**A.** The protein stability index was 3.56.

**Q.** Which protein stability index does the source give for AKAADSPTENDLESGLGHFSLRVH here?
**A.** The protein stability index was 3.95.

**Q.** With AKAADSPTQNDLESGLGHFSLRVH as the variant, how does the protein stability index read?
**A.** The protein stability index was 3.22.

**Q.** For AKAADSPTRNWLESGLGHFSLRVH, which protein stability index is on record?
**A.** The protein stability index was 2.56.

**Q.** Which protein stability index does the source give for AKAADSPTRNYLESGLGHFSLRVH here?
**A.** Its protein stability index is 2.25.

**Q.** For AKAADSPTRNELESGLGHFSLRVH, which protein stability index is on record?
**A.** The protein stability index was 3.9.

**Q.** Which protein stability index does the source give for AKAADSPTRNNLESGLGHFSLRVH here?
**A.** Its protein stability index is 2.47.

**Q.** For AKAADSPTRNRLESGLGHFSLRVH, which protein stability index is on record?
**A.** The protein stability index was 2.54.

**Q.** Which protein stability index does the source give for AKAADSPTRNPLESGLGHFSLRVH here?
**A.** The protein stability index was 2.35.

**Q.** Which protein stability index does the source give for AKAADSPTRNKLESGLGHFSLRVH here?
**A.** The protein stability index was 2.72.

**Q.** Which protein stability index does the source give for AKAADSPTRNGLESGLGHFSLRVH here?
**A.** The protein stability index was 2.33.

**Q.** With AKAADSPTRNTLESGLGHFSLRVH as the variant, how does the protein stability index read?
**A.** Its protein stability index is 2.3.

**Q.** With AKAADSPTRNHLESGLGHFSLRVH as the variant, how does the protein stability index read?
**A.** Its protein stability index is 2.42.

**Q.** For AKAADSPTRNQLESGLGHFSLRVH, which protein stability index is on record?
**A.** Its protein stability index is 2.8.

**Q.** Which protein stability index does the source give for AKAADSPTRNLLESGLGHFSLRVH here?
**A.** Its protein stability index is 1.9.

**Q.** With AKAADSPTRNCLESGLGHFSLRVH as the variant, how does the protein stability index read?
**A.** The protein stability index was 2.91.

**Q.** For AKAADSPTRNFLESGLGHFSLRVH, which protein stability index is on record?
**A.** The protein stability index was 2.75.

**Q.** With AKAADSPTRNALESGLGHFSLRVH as the variant, how does the protein stability index read?
**A.** The protein stability index was 3.1.

**Q.** For AKAADSPTRNMLESGLGHFSLRVH, which protein stability index is on record?
**A.** The protein stability index was 2.19.

**Q.** With AKAADSPTRNVLESGLGHFSLRVH as the variant, how does the protein stability index read?
**A.** Its protein stability index is 2.21.

**Q.** With AKAADSPTRNSLESGLGHFSLRVH as the variant, how does the protein stability index read?
**A.** The protein stability index was 2.64.

**Q.** For AKAADSPTRNILESGLGHFSLRVH, which protein stability index is on record?
**A.** Its protein stability index is 1.96.

**Q.** For AKAADSPTRNDLTSGLGHFSLRVH, which protein stability index is on record?
**A.** Its protein stability index is 2.59.

**Q.** Which protein stability index does the source give for AKAADSPTRNDLYSGLGHFSLRVH here?
**A.** The protein stability index was 1.38.

**Q.** Which protein stability index does the source give for AKAADSPTRNDLGSGLGHFSLRVH here?
**A.** Its protein stability index is 2.02.

**Q.** Which protein stability index does the source give for AKAADSPTRNDLASGLGHFSLRVH here?
**A.** Its protein stability index is 2.26.

**Q.** For AKAADSPTRNDLFSGLGHFSLRVH, which protein stability index is on record?
**A.** The protein stability index was 2.19.

**Q.** With AKAADSPTRNDLMSGLGHFSLRVH as the variant, how does the protein stability index read?
**A.** Its protein stability index is 2.15.

**Q.** Which protein stability index does the source give for AKAADSPTRNDLQSGLGHFSLRVH here?
**A.** The protein stability index was 2.3.

**Q.** With AKAADSPTRNDLDSGLGHFSLRVH as the variant, how does the protein stability index read?
**A.** The protein stability index was 2.95.

**Q.** For AKAADSPTRNDLHSGLGHFSLRVH, which protein stability index is on record?
**A.** Its protein stability index is 2.74.

**Q.** With AKAADSPTRNDLISGLGHFSLRVH as the variant, how does the protein stability index read?
**A.** Its protein stability index is 2.32.

**Q.** Which protein stability index does the source give for AKAADSPTRNDLPSGLGHFSLRVH here?
**A.** Its protein stability index is 2.57.

**Q.** For AKAADSPTRNDLWSGLGHFSLRVH, which protein stability index is on record?
**A.** The protein stability index was 1.85.

**Q.** With AKAADSPTRNDLRSGLGHFSLRVH as the variant, how does the protein stability index read?
**A.** The protein stability index was 2.38.

**Q.** With AKAADSPTRNDLKSGLGHFSLRVH as the variant, how does the protein stability index read?
**A.** The protein stability index was 2.08.

**Q.** For AKAADSPTRNDLSSGLGHFSLRVH, which protein stability index is on record?
**A.** Its protein stability index is 2.8.

**Q.** Which protein stability index does the source give for AKAADSPTRNDLNSGLGHFSLRVH here?
**A.** Its protein stability index is 2.63.

**Q.** For AKAADSPTRNDLCSGLGHFSLRVH, which protein stability index is on record?
**A.** Its protein stability index is 2.31.

**Q.** With AKAADSPTRNDLVSGLGHFSLRVH as the variant, how does the protein stability index read?
**A.** Its protein stability index is 2.52.

**Q.** With AKAADSWTRNDLESGLGHFSLRVH as the variant, how does the protein stability index read?
**A.** Its protein stability index is 1.65.

**Q.** With AKAADSRTRNDLESGLGHFSLRVH as the variant, how does the protein stability index read?
**A.** The protein stability index was 3.56.

**Q.** Which protein stability index does the source give for AKAADSATRNDLESGLGHFSLRVH here?
**A.** Its protein stability index is 3.49.

**Q.** Which protein stability index does the source give for AKAADSITRNDLESGLGHFSLRVH here?
**A.** Its protein stability index is 2.75.

**Q.** For AKAADSSTRNDLESGLGHFSLRVH, which protein stability index is on record?
**A.** Its protein stability index is 2.81.

**Q.** For AKAADSFTRNDLESGLGHFSLRVH, which protein stability index is on record?
**A.** Its protein stability index is 2.33.

**Q.** For AKAADSYTRNDLESGLGHFSLRVH, which protein stability index is on record?
**A.** The protein stability index was 2.18.

**Q.** For AKAADSDTRNDLESGLGHFSLRVH, which protein stability index is on record?
**A.** The protein stability index was 3.64.

**Q.** Which protein stability index does the source give for AKAADSVTRNDLESGLGHFSLRVH here?
**A.** The protein stability index was 2.7.

**Q.** With AKAADSCTRNDLESGLGHFSLRVH as the variant, how does the protein stability index read?
**A.** The protein stability index was 2.16.

**Q.** With AKAADSETRNDLESGLGHFSLRVH as the variant, how does the protein stability index read?
**A.** The protein stability index was 3.28.

**Q.** Which protein stability index does the source give for AKAADSGTRNDLESGLGHFSLRVH here?
**A.** Its protein stability index is 2.77.

**Q.** With AKAADSQTRNDLESGLGHFSLRVH as the variant, how does the protein stability index read?
**A.** Its protein stability index is 3.41.

**Q.** Which protein stability index does the source give for AKAADSNTRNDLESGLGHFSLRVH here?
**A.** The protein stability index was 3.27.

**Q.** For AKAADSMTRNDLESGLGHFSLRVH, which protein stability index is on record?
**A.** Its protein stability index is 2.57.

**Q.** With AKAADSKTRNDLESGLGHFSLRVH as the variant, how does the protein stability index read?
**A.** Its protein stability index is 2.92.

**Q.** Which protein stability index does the source give for AKAADSHTRNDLESGLGHFSLRVH here?
**A.** The protein stability index was 3.45.

**Q.** With AKAADSLTRNDLESGLGHFSLRVH as the variant, how does the protein stability index read?
**A.** Its protein stability index is 3.09.

**Q.** For AKAADSTTRNDLESGLGHFSLRVH, which protein stability index is on record?
**A.** The protein stability index was 3.2.
